The results in this text go back to patent publication EP2468858B1.

This experiment deals with FGF-21 receptor on differentiated 3T3-L1 fat cells (mouse). As to the kind of experiment: cell-based or functional assay.

With “recombinant human FGF-21 (from Chongqing Fagen Biomedical Inc.) (from UniProt Q9NSA1 29-209) (ligand)”, the Glucose uptake CPM of 3T3-L1 fat cells at 0 nM protein (baseline) was found to be 1880 CPM, the Glucose uptake CPM of 3T3-L1 fat cells at 0.03 nM protein was found to be 1800 CPM, the Glucose uptake CPM of 3T3-L1 fat cells at 0.15 nM protein was 2110 CPM and the Glucose uptake CPM of 3T3-L1 fat cells at 0.8 nM protein came to 2200 CPM. Further, the Glucose uptake CPM of 3T3-L1 fat cells at 4 nM protein was found to be 3300 CPM, the Glucose uptake CPM of 3T3-L1 fat cells at 20 nM protein came to 5130 CPM and the Glucose uptake CPM of 3T3-L1 fat cells at 100 nM protein turned out to be 5320 CPM.
